In the Human Domainome abundance scans (Beltran et al. 2025):
± gives the uncertainty stated by the source.

B1: Far upstream element-binding protein 3, residues 75 to 150; numbered along this chain, Q96I24 (parent)
chain: RTVITEEFKVPDKMVGFIIGRGGEQISRIQAESGCKIQIASESSGIPERPCVLTGTPESIEQAKRLLGQIVDRCRN

Variants of: B1
Experiment: abundance fitness (aPCA) (normalised: wild type 0, dead -1); higher = more abundant; growth selection in yeast, the domain comes from the species named
Settings: Homo sapiens

Variant | abundance fitness
RTVITEEFKVPDKMVGFIIGRGGEQISRIQAESGPKIQIASESSGIPERPCVLTGTPESIEQAKRLLGQIVDRCRN [C35P] | -0.758 ± 0.07
RTVIIEEFKVPDKMVGFIIGRGGEQISRIQAESGCKIQIASESSGIPERPCVLTGTPESIEQAKRLLGQIVDRCRN [T5I] | -0.231 ± 0.1
RTVITEEFKVPDKMVGFIIGRGGEQISRIQAESGCKIQIASESSGMPERPCVLTGTPESIEQAKRLLGQIVDRCRN [I46M] | -0.053 ± 0.04
RTVITEEFKVPDKMVGFIIGRGGEQTSRIQAESGCKIQIASESSGIPERPCVLTGTPESIEQAKRLLGQIVDRCRN [I26T] | -0.262 ± 0.041
RTVITEEFKVPDKMVGFIIGRGGEQISRIQAESGCKIQIASESSGIPERPCVLTGTPESIGQAKRLLGQIVDRCRN [E61G] | -0.017 ± 0.027
STVITEEFKVPDKMVGFIIGRGGEQISRIQAESGCKIQIASESSGIPERPCVLTGTPESIEQAKRLLGQIVDRCRN [R1S] | -0.042 ± 0.041
RTVITEEFKVPDKMVGFIIGRGGEQISRIQAESGCKIQIASESSGIPERMCVLTGTPESIEQAKRLLGQIVDRCRN [P50M] | -0.04 ± 0.038
RTVITEEFKVPDKMVGFIIGRGGEQISRIQAESTCKIQIASESSGIPERPCVLTGTPESIEQAKRLLGQIVDRCRN [G34T] | -0.268 ± 0.044
RTVITEEFKVPDKMVGFIIGRGGEQISRIQAESGCKIQIASESSGKPERPCVLTGTPESIEQAKRLLGQIVDRCRN [I46K] | -0.003 ± 0.043
RTVKTEEFKVPDKMVGFIIGRGGEQISRIQAESGCKIQIASESSGIPERPCVLTGTPESIEQAKRLLGQIVDRCRN [I4K] | -0.035 ± 0.049
RTVITEEFKVPDKMVGFIIGRGGEQISRIQAESGCKIQIASESSGIPERPCVLTGTEESIEQAKRLLGQIVDRCRN [P57E] | -0.045 ± 0.045
RTVITEEFKVPDKMVGFIIGRGGEQHSRIQAESGCKIQIASESSGIPERPCVLTGTPESIEQAKRLLGQIVDRCRN [I26H] | -0.144 ± 0.052
RTVITEEFKVPDTMVGFIIGRGGEQISRIQAESGCKIQIASESSGIPERPCVLTGTPESIEQAKRLLGQIVDRCRN [K13T] | -0.073 ± 0.039
RTVITEEFKVPDKMVGFIIGRGGEQISRIQAESGCKIQIASESSGIPERPCVVTGTPESIEQAKRLLGQIVDRCRN [L53V] | -0.227 ± 0.033
RTVITEEFKVPDKMVGFIIGRGGEQISRIQAESGCKIQIASEGSGIPERPCVLTGTPESIEQAKRLLGQIVDRCRN [S43G] | -0.041 ± 0.027
RTVITEEFKVPDKMVGFIIGRGGEQISRIQAESGCKIQIASWSSGIPERPCVLTGTPESIEQAKRLLGQIVDRCRN [E42W] | -0.069 ± 0.035
RTVITEEFKVPDKMVGFIIGRGGEQISRIQAESGCKIQIASESSGIPERPCVLTKTPESIEQAKRLLGQIVDRCRN [G55K] | -0.972 ± 0.063
RTVITEEFKVPDKMVGFIIGRGGEQISRIQAESGCEIQIASESSGIPERPCVLTGTPESIEQAKRLLGQIVDRCRN [K36E] | -0.02 ± 0.039

Variant | abundance fitness
RTVITEEFKVPDKMVGFIIGRGGEQISRIQAESGCKIQIASESSGIPERPCVLTGTPESIEQAKRYLGQIVDRCRN [L66Y] | -0.078 ± 0.06
RTVITEEFKVPDKMVGFIIGRGGEQISRIQAESGCKIQIASESSGIPERPCVLDGTPESIEQAKRLLGQIVDRCRN [T54D] | -0.187 ± 0.077
RTVITEEFKPPDKMVGFIIGRGGEQISRIQAESGCKIQIASESSGIPERPCVLTGTPESIEQAKRLLGQIVDRCRN [V10P] | -0.514 ± 0.044
RTVITEEFKVPDKMVGFIIGRGGEFISRIQAESGCKIQIASESSGIPERPCVLTGTPESIEQAKRLLGQIVDRCRN [Q25F] | -0.105 ± 0.082
RTVITEEFKVPDKMVGFIIGRGGEQISRIQAESGCKIQIASESSGIPERPCVLTGTPESIEQAKRLQGQIVDRCRN [L67Q] | -0.839 ± 0.085
RTVITEEFKVPDKMVGFIIGRGGEQISRIQAQSGCKIQIASESSGIPERPCVLTGTPESIEQAKRLLGQIVDRCRN [E32Q] | 0.016 ± 0.04
RTVITEEFKVPDKMVGFIIGRGGEQISRIQAEDGCKIQIASESSGIPERPCVLTGTPESIEQAKRLLGQIVDRCRN [S33D] | -0.648 ± 0.06
RTVITEEFKVPDKMVGFIIGRGGEQISRIQAESGCKIQIASESSGIPEEPCVLTGTPESIEQAKRLLGQIVDRCRN [R49E] | -0.159 ± 0.037
RTVITEEFDVPDKMVGFIIGRGGEQISRIQAESGCKIQIASESSGIPERPCVLTGTPESIEQAKRLLGQIVDRCRN [K9D] | -0.129 ± 0.044
RTVITEEFKVPDKMVGFIIDRGGEQISRIQAESGCKIQIASESSGIPERPCVLTGTPESIEQAKRLLGQIVDRCRN [G20D] | -0.104 ± 0.041
KTVITEEFKVPDKMVGFIIGRGGEQISRIQAESGCKIQIASESSGIPERPCVLTGTPESIEQAKRLLGQIVDRCRN [R1K] | 0.008 ± 0.055
RTVITEEFKVPDKMVGFIIGRGGEQISRIQAESGCKIQIASESSGIPERPCVLTGTPESIEQAKRLFGQIVDRCRN [L67F] | -0.367 ± 0.064
RTVITEEFKVPDKMVGFIIGRGGEQISRIQAESGCKIQIASESSGIPERPCVGTGTPESIEQAKRLLGQIVDRCRN [L53G] | -0.971 ± 0.044
RTVRTEEFKVPDKMVGFIIGRGGEQISRIQAESGCKIQIASESSGIPERPCVLTGTPESIEQAKRLLGQIVDRCRN [I4R] | -0.065 ± 0.026
RTVITEEFKVPDKMVGFIIGKGGEQISRIQAESGCKIQIASESSGIPERPCVLTGTPESIEQAKRLLGQIVDRCRN [R21K] | -0.025 ± 0.043
RTVITEEFKVPDKMVRFIIGRGGEQISRIQAESGCKIQIASESSGIPERPCVLTGTPESIEQAKRLLGQIVDRCRN [G16R] | -0.037 ± 0.028
RTVITEEFKVPDKMVGFIIGRGGEQISRIQAESGLKIQIASESSGIPERPCVLTGTPESIEQAKRLLGQIVDRCRN [C35L] | -0.763 ± 0.046
RQVITEEFKVPDKMVGFIIGRGGEQISRIQAESGCKIQIASESSGIPERPCVLTGTPESIEQAKRLLGQIVDRCRN [T2Q] | -0.003 ± 0.042
